Test results from patent US8323941B2, “Histone demethylation mediated by the nuclear amine oxidase homolog LSD1” (President and Fellows of Harvard College, priority 2004, dated 2012).

Key:
[1] = molecular target: T1, LSD1 (Homo sapiens, UniProt O60341); experiment: LSD1 demethylation assay on nucleosomal substrates (mononucleosomes), Western blotting; type: biochemical; parameters: Full length (1-851aa) and C-terminal deleted (1-427 aa) human LSD1 cDNAs; 6xHis (N); made in house; host or cells: bacteria
Method: Preparation of mononucleosome. Mononucleosome was made according to a standard protocol (Tagami et al., 2004; Utley et al., 1996). Briefly, nuclear pellet from both TSA-treated or non-treated HeLa cells was homogenized for 60 times with type A pestle to obtain oligo-nucleosomes. The oligo-nucleosomes were then digested with micrococcal nuclease (40 units/mL) for 10 mins at 30° C. The nuclease is inactivated by 5 mM EDTA. Digested materials were spun at 14000 rpm for 3 mins. Resulting supernatant was spun again for additional 3 mins at the same speed. Supernatant from the second spin was subject to 10-25% glycerol gradient sedimentation. The monocleosome-containing fractions were identified by examining aliquots of fractions (treated with proteinase K) on DNA agarose gel. An aliquot of TSA-treated or non TSA-treated mononucleosome, a kind gift from Dr. Yoshihiro Nakatani's Lab in Dana Faber Cancer Institute, Harvard Medical School (Tagami et al., 2004), was used here as a control for the quality of mononucleosome made in our lab.
(§1) Demethylation assay. LSD1 demethylation activity on free histone or nucleosomal histone was carried out as previously reported (Shi et al., 2004). Briefly, bulk histones or mononucleosomes were incubated with purified His-LSD1 with or without purified His-CoREST, His-CoREST mutants, His-BHC80 and/or GST-HDAC1 in the histone demethylase activity (HDM) assay buffer (50 mM Tris pH8.5, 50 mM KCl, 5 mM MgCl, 0.5% BSA and 5% glycerol) from 10 mins up to 1 hour at 37° C. The demethylase activity of LSD1 under various conditions was evaluated by Western blotting using K4-H3 methylation-specific antibodies.

[2] = molecular target: T1, LSD1; experiment: LSD1 demethylation assay on free (bulk) histones, Western blotting; type: biochemical; parameters: Full length (1-851aa) and C-terminal deleted (1-427 aa) human LSD1 cDNAs; 6xHis (N); made in house; host or cells: bacteria (IPTG induction); settings: H3-K4 demethylation, recombinant LSD1
Method: as §1

Substance: BHC80: PHD domain-containing component of the BRAF35/HDAC2 complex, recombinant
- effect of added protein on ability of recombinant LSD1 to demethylate nucleosomal substrates ([1]; bacterially purified protein added to recombinant LSD1): no effect
- demethylase activity of LSD1/CoREST ([1]; increasing amounts of BHC80, nucleosomal substrates): proportional decrease
- effect on LSD1 demethylase activity on free histones [2]: significantly dampened
